# Test results as given in patent US20030161809A1 (published 2003).
# B1: single chain antibody sFv5AF (scFv)
# scFv: DYKAKQVQLVQSGGGVVQPGRSLRLSCAASGFTFSSYAMHWVRQAPGKGLEWVSAISGSGGSTYYADSVKGRFTISRDNAKNSLYLQMNSLRAEDTAVYYCARDTRGYFDLWGRGTLVTVSSGGGGSGGGGSGGGGSSELTQDPAMSVALGQTVRITCQGDSLRKYHASWYQQRPRQAPRLVVYGKNERPSGIPERFSGSTSGDTASLTISGLQAEDEADYYCHSRDSNADLVVFGGGTKVTVLGAAAEQKLISEEDLNGAAHHHHHH
# B2: sFv5AF-Cys (starting material, mixture of monomer and dimer) (scFv)
# scFv: DYKAKQVQLVQSGGGVVQPGRSLRLSCAASGFTFSSYAMHWVRQAPGKGLEWVSAISGSGGSTYYADSVKGRFTISRDNAKNSLYLQMNSLRAEDTAVYYCARDTRGYFDLWGRGTLVTVSSGGGGSGGGGSGGGGSSELTQDPAMSVALGQTVRITCQGDSLRKYHASWYQQRPRQAPRLVVYGKNERPSGIPERFSGSTSGDTASLTISGLQAEDEADYYCHSRDSNADLVVFGGGTKVTVLGGGGGSCAAAEQKLISEEDLNGAAHHHHHH
# notes: also called s5AF-Cys
# B3: purified monomer sFv5AF-Cys (scFv)
# scFv: B2 scFv
# notes: also called 5Afcys Monomer; sFv5AF-Cys monomer
# B4: purified dimer sFv5AF-Cys (scFv)
# scFv: B2 scFv
# notes: also called 5Afcys Dimer; sFv5AF-Cys dimer
# B5: [monomer sFv5AF-Cys]-SPDP-[15 kD protein] conjugate without c-myc tag (Az018b) (other)
# scFv: DYKAKQVQLVQSGGGVVQPGRSLRLSCAASGFTFSSYAMHWVRQAPGKGLEWVSAISGSGGSTYYADSVKGRFTISRDNAKNSLYLQMNSLRAEDTAVYYCARDTRGYFDLWGRGTLVTVSSGGGGSGGGGSGGGGSSELTQDPAMSVALGQTVRITCQGDSLRKYHASWYQQRPRQAPRLVVYGKNERPSGIPERFSGSTSGDTASLTISGLQAEDEADYYCHSRDSNADLVVFGGGTKVTVLGGGGGSC
# notes: also called Az0018b; not shown: the 15 kD protein (never identified); the exact point where the c-myc/His tail was lost
# B6: single chain antibody sFv5A (scFv)
# scFv: QVQLQQSGGGVVQPGRSLRLSCAASGFTFSSYAMHWVRQAPGKGLEWVSAISGSGGSTYYADSVKGRFTISRDNAKNSLYLQMNSLRAEDTAVYYCARDTRGYFDLWGRGTLVTVSSGGGGSGGGGSGGGGSSELTQDPAMSVALGQTVRITCQGDSLRKYHASWYQQRPRQAPRLVVYGKNERPSGIPERFSGSTSGDTASLTISGLQAEDEADYYCHSRDSNADLVVFGGGTKVTVLGAAAEQKLISEEDLNGAAHHHHHH
# B7: [monomer sFv5AF-Cys]-SPDP-[15 kD protein] conjugate with c-myc tag (Az018a) (other)
# scFv: B2 scFv
# B8: [dimer sFv5AF-Cys]-SPDP-[15 kD protein] conjugate (Az019) (other)
# scFv 1: B2 scFv
# scFv 2: B2 scFv
# notes: also called AzO19; Az0019
# Target: pIgR expressed on transfected MDCK cells
# Assay: cell-based or functional assay
row,Binder,"percent transcytosis, pIgR expressing MDCK cells, overnight"
1,B1,2%

# Target: T1, GST-Human-stalk fusion protein (Schistosoma japonica; human, UniProt P01833 550-638)
# T1 construct: domain: stalk; About 37.8 kD; also called D6 human; human pIgR Domain 6 GST (D6-GST) fusion protein; not shown: glutathione-S-transferase from Schistosoma japonica, from vector pGEX-2TK
# Assay: SPR (Biacore), D6-GST captured on anti-GST antibody, 1:1 Langmuir global fit
# T1 sequence (P01833 550-638, tags left off): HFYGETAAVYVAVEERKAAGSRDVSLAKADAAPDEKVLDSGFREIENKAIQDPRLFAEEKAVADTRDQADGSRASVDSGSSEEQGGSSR
Binder,Ka,Kd,koff,kon
B2,6.71e+08 M⁻¹,1.49 nM,0.00145 s⁻¹,976000 M⁻¹ s⁻¹
B3,1.77e+08 M⁻¹,5.64 nM,0.00241 s⁻¹,428000 M⁻¹ s⁻¹
B4,5.02e+08 M⁻¹,1.99 nM,0.00217 s⁻¹,1.09e+06 M⁻¹ s⁻¹

# Target: T2, GST-Rat-stalk fusion protein (Schistosoma japonica; rat, UniProt P15083 535-643)
# T2 construct: domain: stalk; About 39.3 kD, no 6xHis tag; also called [GST]-[rat domain 6] fusion protein; D6 rat; not shown: glutathione-S-transferase from Schistosoma japonica, from vector pGEX-2TK
# T2 sequence (looked up): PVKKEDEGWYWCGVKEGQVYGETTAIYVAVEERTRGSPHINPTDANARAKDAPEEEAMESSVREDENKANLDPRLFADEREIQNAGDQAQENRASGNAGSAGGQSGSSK
# Assay: as above
Binder,Ka,Kd,koff,kon
B2,4.36e+08 M⁻¹,2.3 nM,0.00282 s⁻¹,1.23e+06 M⁻¹ s⁻¹
B3,1.77e+08 M⁻¹,5.63 nM,0.00303 s⁻¹,538000 M⁻¹ s⁻¹
B4,5.01e+08 M⁻¹,2 nM,0.00341 s⁻¹,1.71e+06 M⁻¹ s⁻¹

# Target: T3, GST-Cyn monkey-stalk fusion protein (Schistosoma japonica; cynomolgus monkey)
# T3 construct: also called D6 cyno; Cyno; not shown: GST (Schistosoma japonicum, from pGEX-2TK) and its linker before the GS
# T3 chain: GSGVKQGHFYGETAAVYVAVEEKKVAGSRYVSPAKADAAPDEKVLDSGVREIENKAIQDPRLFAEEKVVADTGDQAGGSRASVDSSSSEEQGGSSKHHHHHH
# Assay: as above
Binder,Ka,Kd,koff,kon
B2,7.7e+08 M⁻¹,1.3 nM,0.00137 s⁻¹,1.06e+06 M⁻¹ s⁻¹
B3,1.73e+08 M⁻¹,5.77 nM,0.00256 s⁻¹,443000 M⁻¹ s⁻¹
B4,4.61e+08 M⁻¹,2.17 nM,0.00244 s⁻¹,1.12e+06 M⁻¹ s⁻¹

# Target: T1, GST-Human-stalk fusion protein
# Assay: SPR (Biacore), D6-GST captured on anti-GST antibody, global fit
Binder,Ka,Kd,koff,kon
B5,9.3e+06 M⁻¹,107 nM,0.00465 s⁻¹,43200 M⁻¹ s⁻¹
B6,2.16e+07 M⁻¹,46.3 nM,0.00337 s⁻¹,72900 M⁻¹ s⁻¹
B7,9.62e+06 M⁻¹,104 nM,0.00449 s⁻¹,43200 M⁻¹ s⁻¹
B8,1.39e+08 M⁻¹,7.18 nM,0.00109 s⁻¹,152000 M⁻¹ s⁻¹

# Target: T2, GST-Rat-stalk fusion protein
# Assay: as above
Binder,Ka,Kd,koff,kon
B5,1.28e+07 M⁻¹,77.9 nM,0.00385 s⁻¹,49400 M⁻¹ s⁻¹
B6,2.95e+07 M⁻¹,33.9 nM,0.00262 s⁻¹,77300 M⁻¹ s⁻¹
B7,1.24e+07 M⁻¹,80.6 nM,0.0038 s⁻¹,47100 M⁻¹ s⁻¹
B8,1.06e+08 M⁻¹,9.39 nM,0.00196 s⁻¹,209000 M⁻¹ s⁻¹

# Target: T3, GST-Cyn monkey-stalk fusion protein
# Assay: as above
Binder,Ka,Kd,koff,kon
B5,9.5e+06 M⁻¹,105 nM,0.00557 s⁻¹,52900 M⁻¹ s⁻¹
B6,1.93e+07 M⁻¹,51.8 nM,0.00397 s⁻¹,76700 M⁻¹ s⁻¹
B7,9.69e+06 M⁻¹,103 nM,0.00535 s⁻¹,51800 M⁻¹ s⁻¹
B8,1.52e+08 M⁻¹,6.57 nM,0.00108 s⁻¹,164000 M⁻¹ s⁻¹

# Target: T1, GST-Human-stalk fusion protein
# Assay: SPR (Biacore), D6-GST captured on anti-GST antibody
row,Binder,fold difference in affinity against the purified monomer
1,B4,~3 fold

# Target: T2, GST-Rat-stalk fusion protein
# Assay: as above
row,Binder,fold difference in affinity against the purified monomer
1,B4,~3 fold

# Target: T3, GST-Cyn monkey-stalk fusion protein
# Assay: as above
row,Binder,fold difference in affinity against the purified monomer
1,B4,~3 fold

# Target: pIgR Domain 6 GST (D6-GST) fusion protein, species not named
# Assay: SPR (Biacore), 1:1 Langmuir model; ligand not given
Binder,Ka,Kd,koff,kon
B1,4.47e+06 M⁻¹,224 nM,0.00464 s⁻¹,27100 M⁻¹ s⁻¹
B6,6.31e+06 M⁻¹,158 nM,0.00464 s⁻¹,29300 M⁻¹ s⁻¹
B2,9.84e+06 M⁻¹,102 nM,0.00464 s⁻¹,37600 M⁻¹ s⁻¹
